Measurements taken from US20230331846A1 (INHIBRX, published 2023).
Substitutions are numbered along the chain they refer to.

Key:
canine CD64 (canine) = canine CD64 (canine) (UniProt Q7YQJ5); assay: flow cytometry, sdAb titrated on 293FS cells transfected with full length canine CD64, anti-canine Fc 647 secondary
canine PD-1 [1] = target: T1, canine PD-1 (canine); assay: flow cytometry on 293FS cells transiently expressing full length canine PD-1
T1 construct: Expressed full length on transiently transfected 293FS cells; also called full length canine PD-1
T1 chain: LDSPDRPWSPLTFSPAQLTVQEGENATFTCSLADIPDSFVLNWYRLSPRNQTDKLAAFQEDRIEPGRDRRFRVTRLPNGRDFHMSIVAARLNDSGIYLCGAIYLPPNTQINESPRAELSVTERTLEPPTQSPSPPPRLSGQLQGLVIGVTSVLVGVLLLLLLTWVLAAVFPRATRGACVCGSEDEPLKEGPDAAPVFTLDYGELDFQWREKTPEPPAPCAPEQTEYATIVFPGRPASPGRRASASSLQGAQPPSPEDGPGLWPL
Protocol: (§1) Binding of the sdAbs to canine PD-1 was determined as follows. Transiently transfected 293FS cells that express full length canine PD-1 and untransfected 293FS cells were plated at 50,000 cells/well in separate wells. Antibodies were titrated serially diluted 1:3 starting at 400 nM, and detected with anti-canine Fc 647 secondary antibody. Flow cytometric analysis was performed on an Intellicyte iQue analyzer and fluorescence was plotted as median fluorescence intensity.

canine PD-1 [2] = target: T1, canine PD-1; assay: cell-based or functional assay
canine PD-1 [3] = target: T1, canine PD-1; assay: flow cytometry blocking assay: sdAb titrated against 3 nM canine PD-L1-hFc (the blocked ligand) on 293FS cells expressing canine PD-1
Protocol: (§2) Binding of canine PD-1 to PD-L1 in the presence of the sdAbs described in Example 1 was determined as follows. Each sdAb was incubated for 1 hour at room temperature in a PBS buffer, with 3 or 4 nM canine PD-L1-hFc fusion (Sino Biological) and untransfected 293FS cells or transfected 293FS cells expressing full length canine PD-1 (SEQ ID NO: 1). A fluorescent anti-Fc specific secondary antibody was used to detect […] by flow cytometry using an Intellicyte iQue analyzer. Mean fluorescence intensity was plotted for each concentration of sdAb tested.

canine PD-1 [4] = target: T1, canine PD-1; assay: flow cytometry, sdAb titrated on 293FS cells expressing canine PD-1 (title: canPD1 binding), anti-canine Fc 647 secondary
Protocol: as §1

canine PD-1 [5] = target: T1, canine PD-1; assay: flow cytometry blocking assay: sdAb titrated against 4 nM canine PD-L1-hFc (the blocked ligand) on 293FS cells expressing canine PD-1
Protocol: as §2

Sequence of canine CD64 (canine) (Q7YQJ5 entry or part of it): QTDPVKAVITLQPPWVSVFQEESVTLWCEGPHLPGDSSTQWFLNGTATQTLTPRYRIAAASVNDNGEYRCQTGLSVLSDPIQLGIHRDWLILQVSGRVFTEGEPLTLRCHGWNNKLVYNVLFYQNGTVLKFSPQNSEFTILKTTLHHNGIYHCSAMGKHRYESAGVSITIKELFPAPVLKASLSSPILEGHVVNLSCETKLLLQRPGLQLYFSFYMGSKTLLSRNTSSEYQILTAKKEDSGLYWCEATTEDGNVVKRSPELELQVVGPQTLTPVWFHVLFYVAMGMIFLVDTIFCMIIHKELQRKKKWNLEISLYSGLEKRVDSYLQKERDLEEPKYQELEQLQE

B1: cCD19-4A8-Fc (Fc fusion, part only; not given: CD19 binding part, linker, not shown: another chain or arm of the molecule; small tags and cut ends)
Fc: ENGRVPRPPDCPPCPAPEMLGGPSVFIFPPKPKDTLLIARTPEVTCVVVDLDPEDPEVQISWFVDGKQMQTAKTQPREEQFNGTYRVVSVLPIGHQDWLKGKQFTCKVNNKALPSPIERTISKARGQAHQPSVYVLPPSREELSKNTVSLTCLIKDFFPPDIDVEWQSNGQQEPESKYRTTPPQLDEDGSYFLYSKLSVDKSRWQRGDTFICAVMHEALHNHYTQKSLSHSPGK
Canine CD64 (canine)
  EC50 (read off the curve): 9 nM

B2: PD1-14-Fc xEML-DANA (Fc fusion)
chain: QVQLQQSGGGLAQAGGSLRLSCAASGRTVSIYAMGWFRQAPGKEREFVAGIGWNGGTTYYADSVEGRFTISRDHAKNTAYLQMNSLKPEDTAVYYCAAQESAAGTLGDYWGRGTQVTVKPGGGGENGRVPRPPDCPKCPAPGGPSVFIFPPKPKDTLLIARTPEVTCVVVALDPEDPEVQISWFVDGKQMQTAKTQPREEQFAGTYRVVSVLPIGHQDWLKGKQFTCKVNNKALPSPIERTISKARGQAHQPSVYVLPPSREELSKNTVSLTCLIKDFFPPDIDVEWQSNGQQEPESKYRTTPPQLDEDGSYFLYSKLSVDKSRWQRGDTFICAVMHEALHNHYTQKSLSHSPGK
notes: Dimer formation is stated only in embodiment language
Canine PD-1 [1]
  Kd: 8.82 nM
Canine PD-1 [2]
  EC50 (nM), CD4 T cells (canine PBMCs, background corrected mean fluorescence intensity): 1.7 nM
  EC50 (nM), CD8 T cells (canine PBMCs, background corrected mean fluorescence intensity): 0.764 nM
Canine PD-1 [3]
  IC50 (read off the curve): ~2 nM
Canine PD-1 [4]
  EC50 (read off the curve): ~2 nM
Canine PD-1 [5]
  IC50 (read off the curve): ~6 nM

B3: czPD1-14v2-Fc xEML-DANA (Fc fusion)
chain: EVQLVESGGGEVKPGGSLRLSCVASGRTVSIYAMGWFRQAPGKEREFVAGIGWNGGTTYYADAVKGRFTISRDNAKNTVYLQMSSLRAEDTAVYYCAAQESAAGTLGDYWGQGTQVTVKPGGGGENGRVPRPPDCPKCPAPGGPSVFIFPPKPKDTLLIARTPEVTCVVVALDPEDPEVQISWFVDGKQMQTAKTQPREEQFAGTYRVVSVLPIGHQDWLKGKQFTCKVNNKALPSPIERTISKARGQAHQPSVYVLPPSREELSKNTVSLTCLIKDFFPPDIDVEWQSNGQQEPESKYRTTPPQLDEDGSYFLYSKLSVDKSRWQRGDTFICAVMHEALHNHYTQKSLSHSPGK
notes: as for B2
Canine PD-1 [1]
  Kd: 6.65 nM
Canine PD-1 [2]
  EC50 (nM), CD4 T cells (canine PBMCs, background corrected mean fluorescence intensity): 9.15 nM
  EC50 (nM), CD8 T cells (canine PBMCs, background corrected mean fluorescence intensity): 27.2 nM
Canine PD-1 [5]
  IC50 (read off the curve): ~6 nM

B4: czPD1-14v1-Fc xEML-DANA (Fc fusion)
chain: B3 chain with N54S
Canine PD-1 [1]
  Kd: 4.15 nM
Canine PD-1 [5]
  IC50 (read off the curve): ~6 nM

B5: czPD1-14v3-Fc xEML-DANA (Fc fusion)
chain: B3 chain with N74H
notes: as for B2
Canine PD-1 [1]
  Kd: 3.24 nM
Canine PD-1 [5]
  IC50 (read off the curve): ~6 nM

B6: PD1-8-Fc xEML-DANA (Fc fusion)
chain: QVQLQQSGGGLVQAGGSLRVSCAASGRTFSSYGMGWFRQAPGKEREFVAAISWSGGTQYYADSAKGRFTISRDNAKNTVYLQMNSLKPEDTAVYYCADYTDYVVYRPQEIGYWGQGTQVTVKPENGRVPRPPDCPKCPAPGGPSVFIFPPKPKDTLLIARTPEVTCVVVALDPEDPEVQISWFVDGKQMQTAKTQPREEQFAGTYRVVSVLPIGHQDWLKGKQFTCKVNNKALPSPIERTISKARGQAHQPSVYVLPPSREELSKNTVSLTCLIKDFFPPDIDVEWQSNGQQEPESKYRTTPPQLDEDGSYFLYSKLSVDKSRWQRGDTFICAVMHEALHNHYTQKSLSHSPGK
Canine PD-1 [1]
  Kd: < 10 nM
Canine PD-1 [4]
  EC50 (read off the curve): ~2 nM

B7: PD1-5-Fc xEML-DANA (Fc fusion)
chain: QVTLRESGGGLVQPGGSLRLSCAASGLTFGLYAMTWFRQAPGKDREGISCISSSDGSTIYADSVKGRFTASRDNAKDTMYLQMNNLNPEDTAVYYCATDYETRCDYGLRLRDRTAYWGPGTQVTVKPENGRVPRPPDCPKCPAPGGPSVFIFPPKPKDTLLIARTPEVTCVVVALDPEDPEVQISWFVDGKQMQTAKTQPREEQFAGTYRVVSVLPIGHQDWLKGKQFTCKVNNKALPSPIERTISKARGQAHQPSVYVLPPSREELSKNTVSLTCLIKDFFPPDIDVEWQSNGQQEPESKYRTTPPQLDEDGSYFLYSKLSVDKSRWQRGDTFICAVMHEALHNHYTQKSLSHSPGK
Canine PD-1 [1]
  Kd: < 10 nM
Canine PD-1 [3]
  IC50 (read off the curve): ~2 nM
Canine PD-1 [4]
  EC50 (read off the curve): ~2 nM

B8: PD1-13-Fc xEML-DANA (Fc fusion)
chain: QVTLKESGGGLVQAGGSLRLSCAASGRTEIIYAMGWFRQAPGKEREFVAGIGWSGGTTYYADSVEGRFTISRDSAKNTVYLQMRSLKPEDTAVYYCAAQDSVAGTLGDYWGQGTQVTVKPGGGGENGRVPRPPDCPKCPAPGGPSVFIFPPKPKDTLLIARTPEVTCVVVALDPEDPEVQISWFVDGKQMQTAKTQPREEQFAGTYRVVSVLPIGHQDWLKGKQFTCKVNNKALPSPIERTISKARGQAHQPSVYVLPPSREELSKNTVSLTCLIKDFFPPDIDVEWQSNGQQEPESKYRTTPPQLDEDGSYFLYSKLSVDKSRWQRGDTFICAVMHEALHNHYTQKSLSHSPGK
notes: as for B2
Canine PD-1 [1]
  Kd: < 10 nM
Canine PD-1 [3]
  IC50 (read off the curve): ~2 nM
Canine PD-1 [4]
  EC50 (read off the curve): ~2 nM
